Test results from US20230257458A1 (SUNSHINE LAKE PHARMA, published 2023).
Positions count from the first letter of the chain named.

T1: IL-11 protein (UniProt P20809 22-199, limits assumed)
T1 construct: also called IL-11 antigen
T1 sequence (looked up): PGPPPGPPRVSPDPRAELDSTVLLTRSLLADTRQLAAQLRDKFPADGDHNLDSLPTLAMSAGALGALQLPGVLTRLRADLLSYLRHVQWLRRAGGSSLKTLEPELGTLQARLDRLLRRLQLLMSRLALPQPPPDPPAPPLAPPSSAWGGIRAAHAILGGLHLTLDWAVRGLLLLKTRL

T2: IL-11-Fc protein (UniProt P20809 22-199, limits assumed)
T2 construct: also called IL-11 recombinant protein with Fc tag; not shown: Fc tag
T2 sequence (looked up): T1 sequence (looked up)

B1: 3-7C9-1A6 (antibody, human IgG1, kappa, V domains shown)
VH: QVQLKQSGPGLVQPSQSLSITCTVSGFSLTNYGVHWVRQSPGKGLEWLGAIWRGGSTDYNAAFMSRLSITKDNSKSQVFFKMNSLQPDDTAIYYCAKNLYGPAAMDYWGQGTSVTVSS
VL: DIQMNQSPSSLSASLGDTITITCHANQNIYVWLSWYQQKPGNIPKLLIYEASNLHTGVPSRFSGSGSGTGFTLTISSLQPEDIATYYCQQGQSYPYTFGGGTKLEIKR
B2: 3-15D5-6A1 (antibody, human IgG1, kappa, V domains shown)
VH: EVKLLESGGGLVQPGGSLKLSCAASGFDFRRYWMSWVRQAPGKGLEWIGQINPDSSMINYTPSLKDKFIISRDNAKNTLYLQMSEVRSEDTALYYCATYGHHATDSWGQGTSVTVSS
VL: DIVLTQSPASLAVSLGQRATISCRASESVDSYGNSFMHWYQQKPGQPPKLLIYRASNLESGIPARFSGSGSRTDFTLTINPVEADDVATYYCQQSNEDPFTFGSGTKLEIKR
B3: 3-2B5-3D2 (antibody, human IgG1, kappa, V domains shown)
VH: QVQLKQSGPGLVLPSQSLSITCTVSGFSLTSYGVHWFRQSPGTGLEWLGVIWSGGITDYNATFIPRLSISKDNSKSQVFFKMNSLQADDTAIYYCARNFDGYYYSIDYWGQGTSVTVSS
VL: DIQMTQTTSSLSASLGDRVTISCRASQDISNSLNWYQQKPDGTVKLLIYYTSRLHSGVPSRFTGSGSGTDYSLTISNLEQEDIATYFCQQGNTLPLTFGAGTKLELKR
B4: humanized antibody VH1+VL2, full-length (IgG format) (antibody, V domains shown)
VH: QVQLVQSGAEVKKPGASVKVSCKASDYTFTNYWLGWVRQAPGQGLEWMGHIYPGGGYTNYNEKFKGRVTMTRDTSTSTVYMELSSLRSEDTAVYYCARVRSGNDALDFWGQGTLVTVSS
VL: EIVLTQSPATLSLSPGERATLSCRASESVDEYGISFMNWYQQKPGQAPRLLIYSASNQGSGIPARFSGSGSGTDFTLTISSLEPEDFAVYFCQQSKEVPWTFGGGTKLEIK
B5: humanized antibody VH1+VL3, full-length (IgG format) (antibody, V domains shown)
VH: B4 VH
VL: B4 VL with Y40F
B6: humanized antibody VH1+VL4, full-length (IgG format) (antibody, V domains shown)
VH: B4 VH
VL: B4 VL with Y40F, V89M

Columns and labels:
[1] = biological target: T1, IL-11 protein; assay: ELISA, monoclonal hybridoma supernatant on IL-11
Source text: (§1) Cell lines with high secretion of specific antibody were selected for expanded culture and cryopreservation.

[2] = biological target: T1, IL-11 protein; assay: flow competition: IL-11 + antibody on IL-11R cells; lower = more blocking
Source text: as §1

[3] = biological target: T2, IL-11-Fc protein; assay: flow competition: IL-11-Fc + antibody dilutions on membrane-IL-11R CHO cells
Experimental: Then the plate was incubated with 1.5*10\hat{ }5 membrane-IL-11R CHO cells (100 ul/well) for 1 h at room temperature. After incubation, the plate was centrifuged at 1500 rpm for 5 min, washed three times with PBS, and 1:400 diluted flow secondary antibody Goat-anti-Fc-FITC (Abcam, ab98529) was added with 200 ul/well. Then, the plate was incubated at 4° C. for 1 h, centrifuged at 1500 rpm for 5 min, washed three times with PBS, resuspended cells in 180 ul PBS, and detected by flow cytometry.

[4] = biological target: T1, IL-11 protein; assay: SPR (Biacore), IgG captured, IL-11 6.25-400 nM as analyte
Experimental: The measure method included the steps of capturing the humanized antibody at a flow rate of 10 ul/min. […] Finally the chip was regenerated with 10 mM glycine buffer.

Binder	OD450 [1]	FITC Mean [2]	EC50 [3]	Kd [4]	koff [4]	kon [4]
B1	1.6	3150				
B2	1.51	13600				
B3	1.61	15300				
B4			11.6 mg/L	0.012 µM	0.000597 s⁻¹	49800 M⁻¹ s⁻¹
B5			10.5 mg/L	0.00903 µM	0.000474 s⁻¹	52600 M⁻¹ s⁻¹
B6			12.5 mg/L	0.01 µM	0.000545 s⁻¹	54300 M⁻¹ s⁻¹
